Data taken from the supplement of paper PMC11246515.
± gives the standard deviation of the averaged measurements.

Assay: total protein half-life in vivo (active degradation + dilution); higher = more stable protein
[1] = E. coli NCM3722 delta-clpP delta-lon delta-hslV, growth: N-lim chemostat, doubling time 6 h
[2] = E. coli NCM3722 delta-hslV, growth: N-lim chemostat, doubling time 6 h
[3] = E. coli NCM3722 delta-smpB, growth: N-lim chemostat, doubling time 6 h
[4] = wild type E. coli NCM3722, growth: C-lim chemostat, doubling time 3 h
[5] = wild type E. coli NCM3722, growth: C-lim chemostat, doubling time 6 h
[6] = wild type E. coli NCM3722, growth: C-lim chemostat, doubling time 12 h
[7] = wild type E. coli NCM3722, growth: N-lim chemostat, doubling time 6 h
[8] = wild type E. coli NCM3722, growth: N-lim chemostat, doubling time 12 h
[9] = wild type E. coli NCM3722, growth: P-lim chemostat, doubling time 6 h
[10] = wild type E. coli NCM3722, growth: P-lim chemostat, doubling time 12 h
[11] = E. coli NCM3722 delta-lon, growth: N-lim chemostat, doubling time 6 h

Sequence | total protein half-life in vivo [1] [h] | total protein half-life in vivo [2] [h] | total protein half-life in vivo [3] [h] | total protein half-life in vivo [4] [h] | total protein half-life in vivo [5] [h] | total protein half-life in vivo [6] [h] | total protein half-life in vivo [7] [h] | total protein half-life in vivo [8] [h] | total protein half-life in vivo [9] [h] | total protein half-life in vivo [10] [h] | total protein half-life in vivo [11] [h] | total protein half-life in vivo (E. coli NCM3722 delta-clpP, growth: N-lim chemostat, doubling time 6 h) [h]
MIKPTFLRRVAIAALLSGSCFSAAAAPPAPPVSYGVEEDVFHPVRAKQGMVASVDATATQVGVDILKEGGNAVDAAVAVGYALAVTHPQAGNLGGGGFMLIRSKNGNTTAIDFREMAPAKATRDMFLDDQGNPDSKKSLTSHLASGTPGTVAGFSLALDKYGTMPLNKVVQPAFKLARDGFIVNDALADDLKTYGSEVLPNHENSKAIFWKEGEPLKKGDTLVQANLAKSLEMIAENGPDEFYKGTIAEQIAQEMQKNGGLITKEDLAAYKAVERTPISGDYRGYQVYSMPPPSSGGIHIVQILNILENFDMKKYGFGSADAMQIMAEAEKYAYADRSEYLGDPDFVKVPWQALTNKAYAKSIADQIDINKAKPSSEIRPGKLAPYESNQTTHYSVVDKDGNAVAVTYTLNTTFGTGIVAGESGILLNNQMDDFSAKPGVPNVYGLVGGDANAVGPNKRPLSSMSPTIVVKDGKTWLVTGSPGGSRIITTVLQMVVNSIDYGLNVAEATNAPRFHHQWLPDELRVEKGFSPDTLKLLEAKGQKVALKEAMGSTQSIMVGPDGELYGASDPRSVDDLTAGY | 6.01 ± 0.77 | 5.99 ± 0.16 | 6.24 ± 0.43 | 3.1 ± 0.34 | 5.9124 ± 0.0049 | 12.2 ± 2.3 | 6.219 ± 0.013 | 12.42 ± 0.05 | 5.73 ± 0.52 | 13.2 ± 1.1 | – | –
MIRFEHVSKAYLGGRQALQGVTFHMQPGEMAFLTGHSGAGKSTLLKLICGIERPSAGKIWFSGHDITRLKNREVPFLRRQIGMIFQDHHLLMDRTVYDNVAIPLIIAGASGDDIRRRVSAALDKVGLLDKAKNFPIQLSGGEQQRVGIARAVVNKPAVLLADEPTGNLDDALSEGILRLFEEFNRVGVTVLMATHDINLISRRSYRMLTLSDGHLHGGVGHE [P0A9R7] | 5.85 ± 0.08 | 5.57 ± 0.067 | 5.32 ± 0.056 | 2.762 ± 0.02 | 5.52 ± 0.12 | 10.1 ± 0.31 | 5.48 ± 0.17 | 9.44 ± 1.1 | 5.26 ± 0.17 | 11.9 ± 2.3 | 5.62 ± 0.4 | –
MKKIPLGTTDITLSRMGLGTWAIGGGPAWNGDLDRQICIDTILEAHRCGINLIDTAPGYNFGNSEVIVGQALKKLPREQVVVETKCGIVWERKGSLFNKVGDRQLYKNLSPESIREEVAASLQRLGIDYIDIYMTHWQSVPPFFTPIAETVAVLNELKSEGKIRAIGAANVDADHIREYLQYGELDIIQAKYSILDRAMENELLPLCRDNGIVVQVYSPLEQGLLTGTITRDYVPGGARANKVWFQRENMLKVIDMLEQWQPLCARYQCTIPTLALAWILKQSDLISILSGATAPEQVRENVAALNINLSDADATLMREMAEALER | 3.71 ± 1.3 | 4.29 ± 0.48 | 4.19 ± 0.18 | 2.96 ± 0.2 | 5.64 ± 1.4 | 8.09 ± 1.9 | 3.97 ± 0.2 | 6.75 | 6.344 ± 0.018 | 11.9 ± 0.44 | – | –
MYKTIIMPVDVFEMELSDKAVRHAEFLAQDDGVIHLLHVLPGSASLSLHRFAADVRRFEEHLQHEAQERLQTMVSHFTIDPSRIKQHVRFGSVRDEVNELAEELGADVVVIGSRNPSISTHLLGSNASSVIRHANLPVLVVR | – | 4.48 | 4.18 ± 0.48 | 3.06 ± 0.038 | 6.27 | 12 ± 1.8 | 3.99 ± 0.43 | 6.48 ± 0.34 | 6.06 ± 0.33 | 10.7 | 4.71 ± 0.33 | –
MILHPSLASANPLHYGRELTALDNLDFGSLHLDIEDSSFINNITFGMKTVQAVARQTPHPLSFHFMLARPQRWFNALAEIRPAWIFVHAETLDYPSETLTEIRHTGARAGLVFNPATPIDAWRYLASELDGVMVMTSEPDGQGQRFIPSMCEKIQKVRTAFPQTECWADGGITLAAAQQLAAAGAQHMVIGRALFSSSDYRATLAQFATL | 5.63 ± 0.16 | – | – | – | 1.44 | 0.974 | – | – | – | – | – | –
MRKKIEMSLIKSPANGVVIKRKISDGLKEIVSLKEKILLETTAKIQSIEEKREEKFIQGYYDGYTKGIIDEMDNFIPLISLLCSELEKKRINMINDLKSILLKPSEEVDVFIKIFESWVTKLPSISGPVNLHIPTSFKDKSLEVESYFVDKSIWNVHITFHDDKRFVFFTDQFIAEFSPQEFVDNCEQYLINNHCFSPDKVNEICEQARHYLVEKMFETHSLDMNNSVLASPEDL | – | – | – | – | – | – | – | > 16 | – | – | – | –
MARARGRGRRDLKSEINIVPLLDVLLVLLLIFMATAPIITQSVEVDLPDATESQAVSSNDNPPVIVEVSGIGQYTVVVEKDRLERLPPEQVVAEVSSRFKANPKTVFLIGGAKDVPYDEIIKALNLLHSAGVKSVGLMTQPI [P0ABV6] | – | 6.44 ± 0.99 | 5.74 ± 0.59 | 3.106 ± 0.028 | 5.686 ± 0.01 | 11.9 ± 0.7 | 5.73 ± 0.26 | 12.6 ± 0.73 | 5.45 ± 0.66 | 11.81 ± 0.036 | 5.7 ± 0.25 | 5.42 ± 0.13
